# Reference: patent US20230145060A1
# Read-outs that look alike come from different tables or passages of the source.
# Legend:
# Assay in all cases: cell-based or functional assay
# [1] = molecular target: HIV-1 Env of pseudovirus X1632 (HIV-1)
# [2] = molecular target: HIV-1 Env of pseudovirus X2088 (HIV-1)
# [3] = molecular target: HIV-1 Env of pseudovirus 278 (HIV-1)
# [4] = molecular target: HIV-1 Env of pseudovirus pCNE8 (HIV-1)
# [5] = molecular target: HIV-1 Env of pseudovirus SF162 (HIV-1) (UniProt P19550)
# [6] = molecular target: HIV-1 Env of pseudovirus Du422 (HIV-1)
# [7] = molecular target: HIV-1 Env of pseudovirus T257 (HIV-1)
# [8] = molecular target: HIV-1 Env of pseudovirus ZM197 (HIV-1)
# [9] = molecular target: HIV-1 Env of pseudovirus THRO (HIV-1)
# [10] = molecular target: HIV-1 Env of pseudovirus JRCSF (HIV-1) (UniProt P20871)
# [11] = molecular target: HIV-1 Env of pseudovirus 3817 (HIV-1)
# [12] = molecular target: HIV-1 Env of pseudovirus BG505 (HIV-1)
# [13] = molecular target: HIV-1 Env of pseudovirus PV0 (HIV-1)
# [14] = molecular target: HIV-1 Env of pseudovirus ZM106 (HIV-1)
# [15] = molecular target: HIV-1 Env of pseudovirus X1632 (HIV-1); remark: listed apart in the source
# [16] = molecular target: HIV-1 Env of pseudovirus X2088 (HIV-1); remark: listed apart in the source
# [17] = molecular target: HIV-1 Env of pseudovirus 278 (HIV-1); remark: listed apart in the source
# [18] = molecular target: HIV-1 Env of pseudovirus pCNE8 (HIV-1); remark: listed apart in the source
# [19] = molecular target: HIV-1 Env of pseudovirus SF162 (HIV-1) (UniProt P19550); remark: listed apart in the source
# [20] = molecular target: HIV-1 Env of pseudovirus Du422 (HIV-1); remark: listed apart in the source
# [21] = molecular target: HIV-1 Env of pseudovirus T257 (HIV-1); remark: listed apart in the source
# [22] = molecular target: HIV-1 Env of pseudovirus ZM197 (HIV-1); remark: listed apart in the source
# [23] = molecular target: HIV-1 Env of pseudovirus THRO (HIV-1); remark: listed apart in the source
# [24] = molecular target: HIV-1 Env of pseudovirus JRCSF (HIV-1) (UniProt P20871); remark: listed apart in the source
# [25] = molecular target: HIV-1 Env of pseudovirus 3817 (HIV-1); remark: listed apart in the source
# [26] = molecular target: HIV-1 Env of pseudovirus BG505 (HIV-1); remark: listed apart in the source
# [27] = molecular target: HIV-1 Env of pseudovirus PV0 (HIV-1); remark: listed apart in the source
# [28] = molecular target: HIV-1 Env of pseudovirus ZM106 (HIV-1); remark: listed apart in the source
substance,measurement,setting,value
"32-N multabody (PGDM1400 scFab-human apoferritin : scFc-N-Ferritin : N49P7 scFab-C-Ferritin : 10E8v4 scFab-C-Ferritin, 4:2:1:1)","IC50, neutralization of X1632 PsV",[1],4.5 ng/mL
same,"IC50, neutralization of X2088 PsV",[2],5200 ng/mL
same,"IC50, neutralization of 278 PsV",[3],9 ng/mL
same,"IC50, neutralization of pCNE8 PsV",[4],0.0032 µg/mL
same,"IC50, neutralization of SF162 PsV",[5],1300 ng/mL
same,"IC50, neutralization of Du422 PsV",[6],2500 ng/mL
same,"IC50, neutralization of T257 PsV",[7],3.7 ng/mL
same,"IC50, neutralization of ZM197 PsV",[8],9.6 ng/mL
same,"IC50, neutralization of THRO PsV",[9],58 ng/mL
same,"IC50, neutralization of JRCSF PsV",[10],5.4 ng/mL
same,"IC50, neutralization of 3817 PsV",[11],9100 ng/mL
same,"IC50, neutralization of BG505 PsV",[12],4.5 ng/mL
same,"IC50, neutralization of PV0 PsV",[13],330 ng/mL
same,"IC50, neutralization of ZM106 PsV",[14],8.9 ng/mL
same,"IC50, neutralization of X1632 PsV",[15],2 pM
same,"IC50, neutralization of X2088 PsV",[16],2300 pM
same,"IC50, neutralization of 278 PsV",[17],3.9 pM
same,"IC50, neutralization of pCNE8 PsV",[18],1.4 pM
same,"IC50, neutralization of SF162 PsV",[19],580 pM
same,"IC50, neutralization of Du422 PsV",[20],1080 pM
same,"IC50, neutralization of T257 PsV",[21],1.6 pM
same,"IC50, neutralization of ZM197 PsV",[22],4.2 pM
same,"IC50, neutralization of THRO PsV",[23],25 pM
same,"IC50, neutralization of JRCSF PsV",[24],2.3 pM
same,"IC50, neutralization of 3817 PsV",[25],3900 pM
same,"IC50, neutralization of BG505 PsV",[26],1.9 pM
same,"IC50, neutralization of PV0 PsV",[27],150 pM
same,"IC50, neutralization of ZM106 PsV",[28],3.9 pM
